The test concerns the target YFP-hDcp2 (human), Q8IU60. In words: FRET or BRET. Particulars: remark: other sources report otherwise.

B1: CFP-hDcp1a, Q9NPI6 1-582 (natural protein)
chain: MEALSRAGQEMSLAALKQHDPYITSIADLTGQVALYTFCPKANQWEKTDIEGTLFVYRRSASPYHGFTIVNRLNMHNLVEPVNKDLEFQLHEPFLLYRNASLSIYSIWFYDKNDCHRIAKLMADVVEEETRRSQQAARDKQSPSQANGCSDHRPIDILEMLSRAKDEYERNQMGDSNISSPGLQPSTQLSNLGSTETLEEMPSGSQDKSAPSGHKHLTVEELFGTSLPKEQPAVVGLDSEEMERLPGDASQKEPNSFLPFPFEQLGGAPQSETLGVPSAAHHSVQPEITTPVLITPASITQSNEKHAPTYTIPLSPVLSPTLPAEAPTAQVPPSLPRNSTMMQAVKTTPRQRSPLLNQPVPELSHASLIANQSPFRAPLNVTNTAGTSLPSVDLLQKLRLTPQHDQIQTQPLGKGAMVASFSPAAGQLATPESFIEPPSKTAAARVAASASLSNMVLAPLQSMQQNQDPEVFVQPKVLSSAIPVAGAPLVTATTTAVSSVLLAPSVFQQTVTRSSDLERKASSPSPLTIGTPESQRKPSIILSKSQLQDTLIHLIKNDSSFLSTLHEVYLQVLTKNKDNHNL
With B1, the apparent FRET efficiency (one experiment, foci in the bleached region) came out at 17% and the average apparent FRET efficiency amounted to 15%.
